We go through 2 substances from paper PMC8878492.

In test [1] the target is HAdV-D26 penton base (human adenovirus D26 (HAdV-D26)). Kind of test: cryo-EM structure.
Test [2] addresses HAdV-D26 hexon (human adenovirus D26 (HAdV-D26)). As to the kind of experiment: cryo-EM structure.

Values joined by “and” are separate entries in the source; they are usually repeats but may differ in a detail not shown here. Equal values may be shown once.

HAdV-D26 penton base (natural protein): the stoichiometry N in test [1] was determined as 5 subunits.
For the substance “cleaved N-terminal fragment of HAdV-D26 pre-protein VI (pVIn) (peptide)”, in test [2], the stoichiometry N (copies of pVIn in a hexon) is 2 and 3.

One may read the stoichiometry N as the number of molecules, sites or subunits per partner or assembly.
